We go through 1 molecule from paper PMC7076219.

The assay has as its target ligands on KG1a cells (human (endogenous in KG1a)). Nature of the assay: flow cytometry on cells; KG1a cells stained with 10 ug/ml E-selectin protein in HBSS with 5% FBS and 2 mM CaCl2, 4 °C, 20 min; detected by Strep-tag II mAb and PE anti-mouse IgG1. A general note: In flow cytometry, cells or beads pass a laser one at a time.

B1: E-S6 (monomeric full-length extracellular mouse E-selectin) (domain or fragment)
chain: WYYNASSELMTYDEASAYCQRDYTHLVAIQNKEEINYLNSNLKHSPSYYWIGIRKVNNVWIWVGTGKPLTEEAQNWAPGEPNNKQRNEDCVEIYIQRTKDSGMWNDERCNKKKLALCYTASCTNASCSGHGECIETINSYTCKCHPGFLGPNCEQAVTCKPQEHPDYGSLNCSHPFGPFSYNSSCSFGCKRGYLPSSMETTVRCTSSGEWSAPAPACHVVECEALTHPAHGIRKCSSNPGSYPWNTTCTFDCVEGYRRVGAQNLQCTSSGIWDNETPSCKAVTCDAIPQPQNGFVSCSHSTAGELAFKSSCNFTCEQSFTLQGPAQVECSAQGQWTPQIPVCKAVQCEALSAPQQGNMKCLPSASGPFQNGSSCEFSCEEGFELKGSRRLQCGPRGEWDSKKPTCSAVKCDDVPRPQNGVMECAHATTGEFTYKSSCAFQCNEGFSLHGSAQLECTSQGKWTQEVPSCQVVQCPSLDVPGKMNMSCSGTAVFGTVCEFTCPDDWTLNGSAVLTCGATGRWSGMPPTCEAPVSPTRP
Turning to B1, the percent of the live KG1a population bound is 86%.
